These results are taken from patent publication US20140371142A1 (Johns Hopkins, published 2014).

B1: FLAG epitope-tagged mouse myonectin (CTRP15) (ligand)
chain: LGVPESAEPVGTHARPQPPGAELPAPPANSPPEPTIAHAHSVDPRDAWMLFVKQSDKGINSKRRSKARRLKLGLPGPPGPPGPQGPPGPFIPSEVLLKEFQLLLKGAVRQRESHLEHCTRDLTTPASGSPSRVPAAQELDSQDPGALLALLAATLAQGPRAPRVEAAFHCRLRRDVQVDRRALHELGIYYLPEVEGAFHRGPGLNLTSGQYTAPVAGFYALAATLHVALTEQPRKGPTRPRDRLRLLICIQSLCQHNASLETVMGLENSSELFTISVNGVLYLQAGHYTSVFLDNASGSSLTVRSGSHFSAILLGLDYKDDDDK
modifications: N-linked glycans (sites not given)
notes: Secreted into the supernatant of transfected HEK 293T cells; Disulfide-linked dimer on a non-reducing gel and multimeric on a native gel; also called FLAG-tagged myonectin; recombinant myonectin

Data set [1] concerns the molecule itself. As to the kind of experiment: native gel immunoblot, FIG. 4 legend (self-association). The procedure:
Native gel electrophoresis. Non-denaturing, non-reducing gel electrophoresis was carried out as previously described (PLoS One, 5: e12765).
Myonectin (CTRP15) protein forms disulfide-linked oligomers and heteromeric complexes with other CTRPs. Consistent with the presence of a signal peptide, myonectin was robustly secreted into the conditioned medium when expressed in vitro (FIG. 4A). Secreted myonectin contains N-linked glycans; treatment with PNGase F (an N-glycosidase) reduced the apparent molecular weight of myonectin on immunoblot (FIG. 4B), confirming that one or more of the conserved Asn residues are glycosylated. In the absence of reducing agent (β-ME), myonectin migrated as a dimer on immunoblot (FIG. 4C), indicating the presence of intermolecular disulfide bond. […] Formation of oligomers is a biochemical feature shared by all CTRPs and proteins of the C1q family. […] Similarly, when co-expressed in mammalian cells (HEK 293T), myonectin formed heteromeric complexes with CTRP2 and CTRP12, and, to a lesser extent, with CTRP5 and CTRP10 (FIG. 4E).
In general terms: Immunoblotting shows a protein as a band on a membrane.

Data set [2] concerns the target B1. The data set can be described thus: co-expression in HEK 293T cells, immunoprecipitation then immunoblot of supernatants (FLAG / HA tags).

In the case of B1, the binding result in data set [1] was “binds”.

B2: HA epitope-tagged CTRP2 (other, mouse)
chain: DPMLGAFARRDFQKGGPQLVCSLPGPQGPPGPPGAPGSSGVVGRMGFPGKDGQDGQDGDRGDSGEEGPPGRTGNRGKQGPKGKAGAIGRAGPRGPKGVSGTPGKHGTPGKKGPKGKKGEPGLPGPCSCGSSRAKSAFSVAVTKSYPRERLPIKFDKILMNEGGHYNASSGKFVCSVPGIYYFTYDITLANKHLAIGLVHNGQYRIRTFDANTGNHDVASGSTILALKEGDEVWLQIFYSEQNGLFYDPYWTDSLFTGFLIYADQGDPNEVYPYDVPDYA
notes: Co-expressed with FLAG-tagged myonectin in HEK 293T cells; supernatants were used for immunoprecipitation
As to B2, the binding result in data set [2] is given as “binds”.

B3: HA epitope-tagged CTRP5 (other, mouse)
chain: SPPLDDNKIPSLCPGQPGLPGTPGHHGSQGLPGRDGRDGRDGAPGAPGEKGEGGRPGLPGPRGEPGPRGEAGPMGAIGPAGECSVPPRSAFSAKRSESRVPPPADTPLPFDRVLLNEQGHYDPTTGKFTCQVPGVYYFAVHATVYRASLQFDLVKNGQSIASFFQYFGGWPKPASLSGGAMVRLEPEDQVWVQVGVGDYIGIYASIKTDSTFSGFLVYSDWHSSPVFAYPYDVPDYA
notes: as for B2
Take B3: the binding result in data set [2] is recorded as “binds”.

B4: HA epitope-tagged CTRP10 (other, mouse)
chain: HYEMLGTCRMICDPYSVAPAGGPAGAKAPPPGPSTAALEVMQDLSANPPPPFIQGPKGDPGRPGKPGPRGPPGEPGPPGPRGPPGEKGDSGRPGLPGLQLTTSAAGGVGVVSGGTGGGGDTEGEVTSALSAAFSGPKIAFYVGLKSPHEGYEVLKFDDVVTNLGNHYDPTTGKFSCQVRGIYFFTYHILMRGGDGTSMWADLCKNGQVRASAIAQDADQNYDYASNSVVLHLDSGDEVYVKLDGGKAHGGNNNKYSTFSGFLLYPDYPYDVPDYA
notes: as for B2
Turning to B4, in data set [2], the binding result is “binds”.
